From article PMC10821409, “The transport activity of the multidrug ABC transporter BmrA does not require a wide separation of the nucleotide-binding domains” (The Journal of Biological Chemistry, 2023)

Target: the molecule itself
Assay: cryo-EM structure; detergent-purified protein (DDM/cholate), apo, inward-facing state; C2 symmetry

B1: BmrA WT, homodimeric multidrug ABC transporter from Bacillus subtilis (natural protein)
chain: MPTKKQKSKSKLKPFFALVRRTNPSYGKLAFALALSVVTTLVSLLIPLLTKQLVDGFSMSNLSGTQIGLIALVFFVQAGLSAYATYALNYNGQKIISGLRELLWKKLIKLPVSYFDTNASGETVSRVTNDTMVVKELITTHISGFITGIISVIGSLTILFIMNWKLTLLVLVVVPLAALILVPIGRKMFSISRETQDETARFTGLLNQILPEIRLVKASNAEDVEYGRGKMGISSLFKLGVREAKVQSLVGPLISLVLMAALVAVIGYGGMQVSSGELTAGALVAFILYLFQIIMPMGQITTFFTQLQKSIGATERMIEILAEEEEDTVTGKQIENAHLPIQLDRVSFGYKPDQLILKEVSAVIEAGKVTAIVGPSGGGKTTLFKLLERFYSPTAGTIRLGDEPVDTYSLESWREHIGYVSQESPLMSGTIRENICYGLERDVTDAEIEKAAEMAYALNFIKELPNQFDTEVGERGIMLSGGQRQRIAIARALLRNPSILMLDEATSSLDSQSEKSVQQALEVLMEGRTTIVIAHRLSTVVDADQLLFVEKGEITGRGTHHELMASHGLYRDFAEQQLKMNADLENKAG
notes: BmrA, multidrug ABC transporter, Bacillus subtilis; hexa histidine-tagged pET23 BmrA; Residues 578 onward could not be modelled in PDB 8QOE; also called WT BmrA; WT protein; source: E. coli C41(DE3), purified in DDM/cholate (Ni-NTA)
B1: binds.
